Assay results published in US20100041096.

Tests used:
His-BARD1 1-320 = His-BARD1 1-320 (UniProt Q99728)
His-BARD1 14-189 = His-BARD1 14-189 (UniProt Q99728)
Chain of His-BARD1 14-189 (Q99728 14-189): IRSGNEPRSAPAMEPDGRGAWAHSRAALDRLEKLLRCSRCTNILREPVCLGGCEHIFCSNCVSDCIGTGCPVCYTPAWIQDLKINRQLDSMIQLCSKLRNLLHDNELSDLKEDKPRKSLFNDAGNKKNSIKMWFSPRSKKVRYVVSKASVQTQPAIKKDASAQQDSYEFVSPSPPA

Chain of His-BARD1 1-320 (Q99728 1-320): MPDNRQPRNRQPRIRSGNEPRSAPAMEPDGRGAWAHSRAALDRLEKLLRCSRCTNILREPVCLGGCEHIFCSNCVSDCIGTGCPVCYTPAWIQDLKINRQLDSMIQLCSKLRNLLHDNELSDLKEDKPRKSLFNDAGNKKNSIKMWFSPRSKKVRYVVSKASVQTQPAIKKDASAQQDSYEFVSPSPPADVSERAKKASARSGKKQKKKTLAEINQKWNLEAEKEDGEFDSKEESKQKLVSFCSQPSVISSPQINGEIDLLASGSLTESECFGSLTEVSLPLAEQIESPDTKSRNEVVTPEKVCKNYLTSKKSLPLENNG

CDK2-cyclin E1
in vitro kinase assay ([gamma-32P]ATP, autoradiography) (His-BARD1 1-320): both His-BARD^14-180 and HA-BARD1^1-320 were phosphorylated in vitro with CDK2-cyclin E1 and CDK1-cyclinc B1 | in vitro kinase assay ([gamma-32P]ATP, autoradiography) (His-BARD1 14-189): both His-BARD^14-180 and HA-BARD1^1-320 were phosphorylated in vitro with CDK2-cyclin E1 and CDK1-cyclinc B1

HA-CDK1-cyclin B1
in vitro kinase assay ([gamma-32P]ATP, autoradiography) (His-BARD1 1-320): both His-BARD^14-180 and HA-BARD1^1-320 were phosphorylated in vitro with CDK2-cyclin E1 and CDK1-cyclinc B1 | in vitro kinase assay ([gamma-32P]ATP, autoradiography) (His-BARD1 14-189): both His-BARD^14-180 and HA-BARD1^1-320 were phosphorylated in vitro with CDK2-cyclin E1 and CDK1-cyclinc B1
